For the assay, the target named is human TrkA receptor (human) (UniProt P04629).
UniProt P04629, sequence (P04629 33-796): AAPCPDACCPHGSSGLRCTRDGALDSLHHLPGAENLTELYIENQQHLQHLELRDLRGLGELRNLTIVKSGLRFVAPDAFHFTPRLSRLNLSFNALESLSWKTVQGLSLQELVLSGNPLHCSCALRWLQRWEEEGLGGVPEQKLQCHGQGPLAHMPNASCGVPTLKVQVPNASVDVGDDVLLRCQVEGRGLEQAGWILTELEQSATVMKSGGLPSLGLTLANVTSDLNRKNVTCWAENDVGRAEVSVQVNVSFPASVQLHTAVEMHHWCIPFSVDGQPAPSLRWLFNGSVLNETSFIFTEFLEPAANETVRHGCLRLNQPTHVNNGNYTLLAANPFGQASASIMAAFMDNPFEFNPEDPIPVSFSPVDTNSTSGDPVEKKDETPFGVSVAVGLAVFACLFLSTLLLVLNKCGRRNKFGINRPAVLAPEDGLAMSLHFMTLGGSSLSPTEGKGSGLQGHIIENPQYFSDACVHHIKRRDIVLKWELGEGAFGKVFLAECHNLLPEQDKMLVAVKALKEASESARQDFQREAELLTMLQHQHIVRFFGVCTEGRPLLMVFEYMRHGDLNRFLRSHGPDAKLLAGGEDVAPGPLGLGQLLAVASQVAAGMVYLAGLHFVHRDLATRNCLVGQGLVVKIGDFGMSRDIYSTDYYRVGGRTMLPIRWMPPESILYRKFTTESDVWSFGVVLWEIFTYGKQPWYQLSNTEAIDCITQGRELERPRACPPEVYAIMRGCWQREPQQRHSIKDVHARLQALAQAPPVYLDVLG
Turning to “human Nerve Growth Factor P61S R100E double mutant (ligand)”, the TF1 cell proliferation, C50 (concentration of hNGF giving half of the maximum effect; 0.1–200 ng/ml) was 8.1 ng/mL.

With “human Nerve Growth Factor P61S mutant (ligand)”, the TF1 cell proliferation, C50 (concentration of hNGF giving half of the maximum effect; 0.1–200 ng/ml) stood at 4.3 ng/mL.

As for “human Nerve Growth Factor R100E mutant ("painless" hNGF) (from UniProt P01138 122-241) (ligand)”, the TF1 cell proliferation, C50 (concentration of hNGF giving half of the maximum effect; 0.1–200 ng/ml) came to 10.9 ng/mL.

For the origin of these results see article PMC4570711.
